Where two headings read alike, the source gives them in different places. Blank lines part the entries; values can stand above or below the binder they belong to.
Experiments:
[1] = molecular target: T1, recombinant human domain 1-3His6 of the cation-independent mannose-6-phosphate receptor (human, UniProt P11717 41-467); experiment: in-tandem competitive BLI, biotinylated hDom1-3His6 on SA sensors, purified VHH at 400 nM
T1 construct: Biotinylated (NHS-PEG4-biotin) for BLI; Glycosylated; also called hDom1-3His6; hCI-M6PRD1-D3

[2] = molecular target: T1, recombinant human domain 1-3His6 of the …; experiment: ELISA on coated antigen (100 ng), anti-VHH-HRP, A450
Protocol: (§1) To determine the effect of site-directed mutations, an ELISA was performed. To this end, 100 ng of each successfully purified mutant was coated per well on Nunc Maxisorp plates in 50 mM MES, 150 mM NaCl, pH 6.5 buffer overnight at 4° C. […] Coating-only controls were included for background correction. […] Reactions were stopped after five minutes using a 2N H₂SO₄ solution and plates were read at 450 nm, with a 655 nm background correction. Data were analyzed using the GraphPad Prism 9 software.

[3] = molecular target: T1, recombinant human domain 1-3His6 of the …; experiment: as above; remark: listed apart in the source
Protocol: as §1

[4] = molecular target: T1, recombinant human domain 1-3His6 of the …; experiment: BLI exp 1, dissoc pH 5
Protocol: (§2) For each of the 11 anti-CI-M6PR VHHs, a biolayer interferometry (BLI) experiment was performed in which the hDom₁₋₃His₆ was biotinylated and coupled to streptavidin biosensor tips. Afterwards, the tips were incubated with serially diluted VHHs during the association phase and dissociation was performed at pH 7.4. Similarly, dissociation was performed at pH 7.0, pH 6.0 and pH 5.0 as well after regeneration of the biosensor tips. […] The anti-CI-M6PR antibody (clone 2G11) and GBP were used as positive and negative controls, respectively.
(§3) Analysis of the binding kinetics was performed using an Octet Red96 (FortéBio) device with Streptavidin SA Biosensor tips (VWR 733-2145). Therefore, 1 mL of human domain₁₋₃His₆ (0.5 mg/mL in 50 mM MES, 150 mM NaCl, pH 6.5) was incubated at room temperature for 30 minutes with EZ-Link™ NHS-PEG4-Biotin (1 mg) (Thermo Fischer A39259) and NaHCO₃ (100 mM). Biotinylated human domain₁₋₃His₆ was purified using a Zeba spin desalting Column™ (7K MWCO, 2 mL, Thermo Fischer 89890) and 1 μg/mL was used for immobilization on the Streptavidin SA Biosensor tips. The loaded tips were dipped into a particular anti-CI-M6PR VHH solution, serially diluted in kinetics buffer (0.2M NaH₂PO₄, 0.1M Na⁺ citrate, 0.01% BSA, 0.002% Tween20, pH 7.4). This was followed by dissociation of the particular anti-CI-M6PR VHH in kinetics buffer of pH 7.4, followed by regeneration in Glycine (10 mM, pH 3) and neutralisation. Same cycle was repeated but the dissociation was performed at pH 7.0, 6.0, 5.0, 4.5 and 4.0. A reference well and reference sensors were subtracted from ligand sensors afterwards and Savitsky-Golay filtering was applied on the data. Fitting of the data was performed using a 1:1 model, grouped per pH of dissociation.

[5] = molecular target: T1, recombinant human domain 1-3His6 of the …; experiment: BLI exp 1, dissoc pH 6
Protocol: as §2, §3

[6] = molecular target: T1, recombinant human domain 1-3His6 of the …; experiment: BLI exp 2, dissoc pH 7
[7] = molecular target: T1, recombinant human domain 1-3His6 of the …; experiment: ELISA on coated antigen, 2nd of 2 repeats
Protocol: (§4) FIGS. 4A-4B. Affinity of anti-CI-M6PR VHHs for recombinant human CI-M6PR Domain 1-3His₆ determined by ELISA. A & B. Measurements for each of the 11 anti-CI-M6PR VHHs in serial dilution binding to the coated human CI-M6PR Domain 1-3His₆ antigen. Detection was performed using an anti-VHH antibody coupled to HRP, and measured as the absorbance of the TMB substrate at 450 nm, correlating to the amount of bound VHH as plotted at the Y-axis. The Log₁₀ concentrations of the serially diluted VHHs were plotted at the X-axis. […] A & B represent replicates but using a different concentration of human CI-M6PR Domain 1-3His₆ (in (FIG. 4A): 0-0.75 μM and in (FIG. 4B): 0-1 μM).
(§5) We evaluated the affinity of the VHHs against the hDom₁₋₃His₆ using ELISA. Coated hDom₁₋₃His₆ was incubated with serially diluted VHH that was afterwards detected using an anti-VHH antibody, coupled to HRP.

[8] = molecular target: T2, recombinant mouse domain 1-3His6 of CI-M6PR (mouse, UniProt Q07113 36-418); experiment: ELISA: coated mouse CI-M6PR Domain 1-3His6, serially diluted VHH, anti-VHH-HRP, TMB, Abs 450 nm; sigmoidal regression [table at the right]
T2 construct: Genbank NM_010515.2); Range includes the signal peptide; also called mDom1-3His6; mCI-M6PRD1-D3
Protocol: FIGS. 5A-5B. Affinity of anti-CI-M6PR VHHs for recombinant mouse CI-M6PR Domain 1-3His₆ determined by ELISA. (FIG. 5A) Measurement for each of the 11 anti-CI-M6PR VHHs in serial dilution binding to the coated mouse antigen. Detection was performed using an anti-VHH antibody coupled to HRP, and measured as the absorbance of the TMB substrate at 450 nm, correlating to the amount of bound VHH as plotted at the Y-axis. The Log₁₀ concentrations of the serially diluted VHHs were plotted at the X-axis.
To evaluate the cross-reactivity of the anti-CI-M6PR nanobodies between the human and mouse CI-M6PR domain 1-3His₆ antigen, ELISA was performed with the eleven serially diluted anti-CI-M6PR nanobodies. […] By performing sigmoidal regression on the derived absorbance curves, half-maximal effective concentration (EC₅₀) values of each VHH were acquired, representing the required concentration to occupy 50% of the coated antigen. As a negative control, GBP was included in the assay.

[9] = molecular target: T1, recombinant human domain 1-3His6 of the …; experiment: BLI exp 2, dissoc pH 6
Protocol: as §2
(§6) Analysis of the binding kinetics was performed using an Octet Red96 (FortéBio) device with Streptavidin SA Biosensor tips (VWR, 733-2145). To this end, 1 mL of hCI-M6PR_D1-D3 (0.5 mg/mL in 50 mM MES, 150 mM NaCl, pH 6.5) was incubated at room temperature for 30 minutes with a two-fold molar excesses of EZ-Link™ NHS-PEG₄-Biotin (Thermo Fischer, A39259) and NaHCO₃ (100 mM, pH 8.3). Biotinylated hCIMPR_D1-D3 was purified using a Zeba spin desalting column (Thermo Fischer, 89890) and protein concentration was calculated by measuring the absorbance at 280 nm (extinction coefficient 50320 M¹ cm⁻¹). Two-fold biotin-labelled antigen was loaded on the tips (2.5 μg/mL) and subsequently dipped into a particular anti-CI-M6PR VHH-containing solution (ranging from 0-100 nM). Serial VHH dilutions were made in kinetics buffer (0.2 M Na₂HPO₄, 0.1 M Na⁺ citrate, 0.01% BSA, 0.002% Tween20, pH 7.4). After association (100 sec), dissociation was conducted (500 sec) for each anti-CI-M6PR VHH in the kinetics buffer, followed by biosensor regeneration in glycine (10 mM, pH 3) and neutralisation. The same cycle was repeated with dissociation performed in kinetics buffer of pH 7.0, 6.5, 6.0, 5.5, and 5.0.
(§7) A reference well and reference sensors were subtracted from ligand sensors afterwards and Savitsky-Golay filtering was applied on the data. Fitting of the data was performed using a 1:1 model, grouped per dissociation pH.

[10] = molecular target: T1, recombinant human domain 1-3His6 of the …; experiment: BLI at pH 7.4, 1st of 2 repeats
Protocol: as §2, §3

[11] = molecular target: T1, recombinant human domain 1-3His6 of the …; experiment: BLI exp 2, dissoc pH 5
Protocol: as §2, §6, §7

[12] = molecular target: T1, recombinant human domain 1-3His6 of the …; experiment: ELISA on coated antigen, 1st of 2 repeats
Protocol: as §4, §5

[13] = molecular target: T1, recombinant human domain 1-3His6 of the …; experiment: BLI exp 1, dissoc pH 7.4
Protocol: as §2, §3

[14] = molecular target: T1, recombinant human domain 1-3His6 of the …; experiment: BLI exp 1, dissoc pH 7
Protocol: as §2, §3

T2 sequence (Q07113 other isoform, or with tags, fused parts or gaps): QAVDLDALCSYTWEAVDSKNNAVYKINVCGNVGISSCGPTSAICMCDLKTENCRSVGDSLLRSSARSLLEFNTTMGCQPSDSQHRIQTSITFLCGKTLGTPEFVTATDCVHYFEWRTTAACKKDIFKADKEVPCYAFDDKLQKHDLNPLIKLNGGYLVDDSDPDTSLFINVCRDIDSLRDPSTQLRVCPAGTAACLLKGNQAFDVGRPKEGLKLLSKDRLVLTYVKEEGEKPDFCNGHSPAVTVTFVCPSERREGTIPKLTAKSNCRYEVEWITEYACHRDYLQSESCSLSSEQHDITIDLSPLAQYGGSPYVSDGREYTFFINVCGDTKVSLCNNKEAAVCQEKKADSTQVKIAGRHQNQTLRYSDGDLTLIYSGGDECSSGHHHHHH

binding result [1]: binds
B1: humanized VHH7 variant VHH7 h3 (VHH)
VHH: DVQLVESGGGLVQPGGSLRLSCAASGIIFSDNRMDWYRQAPGKQREWVATLASYGWKTYADSVKGRFTISRDNTKNTVYLQMNSLRPEDTAVYYCKASSPVLNDIWGQGTLVTVSS
notes: made in E. coli

EC50 (read off the curve) [2]: ~0.5 nM
EC50 (read off the curve) [3]: ~0.5 nM
B2: humanized VHH7 variant VHH7hWN (VHH)
VHH: DVQLVESGGGLVQPGGSLRLSCAASGIIFSDNRMDWYRQAPGKQREWVATLASYGWKTYADSVKGRFTISRDNAKNTVYLQMNSLRPEDTAVYYCKASSPVLNDIWGQGTLVTVSS
notes: His6-tagged, made in HEK293S

binding result [1]: binds
B3: humanized VHH7 variant VHH7 h2 (VHH)
VHH: DVQLVESGGGLVQPGGSLRLSCAASGIIFSDNRMDWYRQAPGKQREWVATLASYGWKTYADSVKGRFTISRDNSKNTVYLQMNSLRPEDTAVYYCKASSPVLNDIWGQGTLVTVSS
notes: made in E. coli

binding result [1]: binds
B4: humanized VHH7 variant VHH7 h1 (VHH)
VHH: EVQLVESGGGLVQPGGSLRLSCAASGIIFSDNRMDWYRQAPGKQREWVATLASYGWKTYADSVKGRFTISRDNSKNTVYLQMNSLRPEDTAVYYCKASSPVLNDIWGQGTLVTVSS
notes: made in E. coli

binding result [1]: binds
B5: humanized VHH8 variant VHH8 h2 (VHH)
VHH: DVQLVESGGGLVQPGGSLRLSCAASGRTFNTYNWGWFRQAPGKEREFVAAIRWSSSKTSYADSVKGRFTISRDNSKNTVYLQMNSLRPEDTAVYYCAASIVDFTTNPSHFGSWGQGTLVTVSS
notes: made in E. coli

binding result [1]: binds
B6: humanized VHH8 variant VHH8 h1 (VHH)
VHH: EVQLVESGGGLVQPGGSLRLSCAASGRTFNTYNWGWFRQAPGKEREFVAAIRWSSSKTSYADSVKGRFTISRDNSKNTVYLQMNSLRPEDTAVYYCAASIVDFTTNPSHFGSWGQGTLVTVSS
notes: made in E. coli

binding result [1]: binds
B7: humanized VHH8 variant VHH8 h3 (VHH)
VHH: DVQLVESGGGLVQAGGSLRLSCAASGRTFNTYNWGWFRQAPGKEREFVAAIRWSSSKTSYADSVKGRFTISRDNSKNTVYLQMNSLRPEDTAVYYCAASIVDFTTNPSHFGSWGQGTLVTVSS
notes: made in E. coli

EC50 (read off the curve) [2]: ~3 nM
EC50 (read off the curve) [3]: ~3 nM
B8: humanized VHH8 variant VHH8hWN (VHH)
VHH: DVQLVESGGGLVQPGGSLRLSCAASGRTFNTYNWGWFRQAPGKEREFVAAIRWSSSKTSYADSVKGRFTISRDNAKNTIYLQMNSLRPEDTAVYYCAASIVDFTTNPSHFGSWGQGTLVTVSS
notes: His6-tagged, made in HEK293S

Kd [4]: 10 nM
koff [4]: 0.00746 s⁻¹
kon [4]: 745000 M⁻¹ s⁻¹
Kd [5]: 5.96 nM
koff [5]: 0.00513 s⁻¹
kon [5]: 862000 M⁻¹ s⁻¹
koff [6]: 0.0136 s⁻¹
kon [6]: 1.56e+06 M⁻¹ s⁻¹
EC50 [7]: 0.177 nM
EC50 [8]: 104 nM
koff [9]: 0.0748 s⁻¹
kon [9]: 3.76e+06 M⁻¹ s⁻¹
Kd [10]: 5.3 nM
koff [10]: 0.0036 s⁻¹
kon [10]: 679000 M⁻¹ s⁻¹
koff [11]: 0.074 s⁻¹
kon [11]: 745000 M⁻¹ s⁻¹
EC50 [12]: 0.0608 nM
Kd [13]: 5.3 nM
koff [13]: 0.0036 s⁻¹
kon [13]: 679000 M⁻¹ s⁻¹
Kd [14]: 24.2 nM
koff [14]: 0.0161 s⁻¹
kon [14]: 665000 M⁻¹ s⁻¹
B9: anti-CI-M6PR VHH2 (VHH)
VHH: QVQLQESGGGLVQPGGSLRLSCVFSGRTFMSYDVGWFRQAPGKERELLSSITSSSSSPYYAESVKGRFAVSRDGAKKTVYLRMNSLEPEDTAVYYCAARENWRNDWQYWGQTQVTVSS
notes: His6-tagged; made in Pichia pastoris
